The target in assay [1] is T1, amyloid beta peptide (Aβ) (UniProt P05067 672-713).
T1 construct: also called Aβ9; Aβ9 ligand
In words: ELISA on plates coated with Aβ42 peptide, detection with anti-FLAG M2 HRP ('Ab9 scFv activity, Aβ42 ELISA'). As for the experimental part: An ELISA-based assay was performed to assess Aβ9 scFv activity. 96-well plates were coated with Aβ42 peptide, and 293T conditioned media (containing the GBA-CCD and GBA-CCD-Aβ9 scFv proteins) and cell lysate were then added and incubated for 6 hours. ELISA was developed with anti-FLAG M2 HRP. (See FIG. 23.)

The next assay concerns the target T2, acidic FGF (UniProt P05230 16-155, limits assumed).
T2 construct: also called acidic FGF ligand
As to the kind of experiment: SPR, FGFR1-CCD injected over immobilized ligand. On the procedure: Using a surface plasmon resonance (SPR) technique, the binding kinetics of FGFR1 was measured with two ligands, basic FGF and acidic FGF. A null FGFR1 ligand, vascular endothelial growth factor A (VEGFA), was used as a control. In SPR experiments, the binding of a molecule in the soluble phase (e.g. the peptide of the fusion protein) to a ligand molecule immobilized on a sensor surface is directly measured as a reflected light signal (SPR signal) in a biosensor device. The sensor device may contain an LED-emitting near infrared light, a glass prism fixed to a sensor microchip, and a position-sensitive diode array detector. Binding events cause changes in the refractive index at the surface layer, which are detected as changes in the SPR signal. Specifically, a signal arises when incident LED light is totally internally reflected from the metal-coated interface between two media of different refractive indices (the glass prism and solution). When the incident light is focused on the surface in a wedge, the drop in intensity at the resonance angle appears as a “shadow” in the reflected light wedge, which is detected by the detector. […]
This sensorgram consists of two phases: (Left) In the association phase, the FGFR1-CCD was injected over immobilized ligands on the surface. […] Binding kinetics, including the value of KD, the dissociation constant, can be calculated from the sensorgram.
On the technique in general: In SPR one partner is held on a chip, and binding of the other changes the refractive index at the surface.

As a reminder, the Kd is the concentration at which binding is half-saturated. Read a high Kd as a looser complex.

T2 sequence (P05230 16-155 limits assumed): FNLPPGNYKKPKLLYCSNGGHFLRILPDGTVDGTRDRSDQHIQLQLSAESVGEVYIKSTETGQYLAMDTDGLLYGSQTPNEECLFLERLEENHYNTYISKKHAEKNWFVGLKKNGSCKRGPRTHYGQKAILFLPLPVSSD
T1 sequence (P05067 672-713): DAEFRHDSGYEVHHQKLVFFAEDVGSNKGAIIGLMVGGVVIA

B1: GBA_AB9 (scFv)
fusion protein monomer: ARPCIPKSFGYSSVVCVCNATYCDSFDPPTFPALGTFSRYESTRSGRRMELSMGPIQANHTGTGLLLTLQPEQKFQKVKGFGGAMTDAAALNILALSPPAQNLLLKSYFSEEGIGYNIIRVPMASCDFSIRTYTYADTPDDFQLHNFSLPEEDTKLKIPLIHRALQLAQRPVSLLASPWTSPTWLKTNGAVNGKGSLKGQPGDIYHQTWARYFVKFLDAYAEHKLQFWAVTAENEPSAGLLSGYPFQCLGFTPEHQRDFIARDLGPTLANSTHHNVRLLMLDDQRLLLPHWAKVVLTDPEAAKYVHGIAVHWYLDFLAPAKATLGETHRLFPNTMLFASEACVGSKFWEQSVRLGSWDRGMQYSHSIITNLLYHVVGWTDWNLALNPEGGPNWVRNFVDSPIIVDITKDTFYKQPMFYHLGHFSKFIPEGSQRVGLVASQKNDLDAVALMHPDGSAVVVVLNRSSKDVPLTIKDPAVGFLETISPGYSIHTYLWRRQLKEFMGYQGPPGPPGPPGIPGNHGNNGNNGATGHEGAKGEKGDKGDLGPRGERGQHGPKGEKGYPGIPGYCGPPGPPGPPGIPGNHGNNGNNGATGHEGAKGEKGDKGDLGPRGERGQHGPKGEKGYPGIPDYKDDDDKLQISGGGGSGGGGSQVTLKESGPGILQPSQTLSLTCSFSGFSLNTFGMGVSWIRQPSGKGLEWLAHIFWDDDKHYNPSLKSRLTISKDTSNNQVFLKITTVDTADTATYYCVRYGFDGFPYWGQGTLVTVSAGGGGSGGGGSGGGGSDVVMTQTPLSLPVSLGDQASISCRSNQSLVHSNGNTYLHWYLQKPGQSPKLLIYKVSNRFSGVPDRFSGSGSGTDFTLKISRVEAEDLGFYFCSQSTRVPWTFGGGTKLELKRAAAHHHHHHV
notes: fusion of glucocerebrosidase, CCD and Aβ9 scFv; tested as conditioned media and as protein purified from media and lysate; also called hGBA-CCD-Aβ9 scFv; GBA-CCD-antiAβ9 scFv fusion protein
With B1, the binding result in assay [1] was “binds”.

B2: FGFR1-CCD fusion protein (receptor)
chain: RPSPTLPEQAQPWGAPVEVESFLVHPGDLLQLRCRLRDDVQSINWLRDGVQLAESNRTRITGEEVEVQDSVPADSGLYACVTSSPSGSDTTYFSVNVSDALPSSEDDDDDDDSSSEEKETDNTKPNPVAPYWTSPEKMEKKLHAVPAAKTVKFKCPSSGTPNPTLRWLKNGKEFKPDHRIGGYKVRYATGSIIMDSVVPSDKGNYTCIVENEYGSINHTYQLDVVERSPHRPILQAGLPANKTVALGSNVEFMCKVYSDPQPHIQWLKHIEVNGSKIGPDNLPYVQILKTAGVNTTDKEMEVLHLRNVSFEDAGEYTCLAGNSIGLSHHSAWLTVLEALEERPAVMLKEFMGYQGPPGPPGPPGIPGNHGNNGNNGATGHEGAKGEKGDKGDLGPRGERGQHGPKGEKGYPGIPGYCGPPGPPGPPGIPGNHGNNGNNGATGHEGAKGEKGDKGDLGPRGERGQHGPKGEKGYPGIPDYKDDDDKLQISSTVAAAHHHHHHV
notes: CCD fusions are said to form multimers (trimers, hexamers); It was expressed in cells, isolated and purified; also called Fibroblast growth factor receptor 1 (hsFGFR1) CCD fusion
Regarding B2, the Kd with acidic FGF is under 1 pM.
